How the values were obtained:
[1] = target: 80S ribosomes, P05388;P63244; test: sedimentation with native ribosomes (80S fraction), immunoblot quantification; conditions: chain shown with the change; HEK293 cells expressing Xpress-tagged G5845-1508 proteins; parent: est. 1.0; read off a plot
[2] = target: the molecule itself; test: SEC-MALS; 250 ul of purified TPR-like domain at 1-3 mg/ml on Superdex 200 10/300; 20 mM Tris-HCl pH 6.8, 0.2 M NaCl, 5% glycerol, 1 mM DTT; 0.5 ml/min

B1: Xpress-G5_(845-1508)-WT, Q8TEQ6 D1019E (protein)
chain: ARSLLPLSTSLDHRSKEELHQDCLVLATAKHSRELNEDVSADVEERFHLGLFTDRATLYRMIDIEGKGHLENGHPELFHQLMLWKGDLKGVLQTAAERGELTDNLVAMAPAAGYHVWLWAVEAFAKQLCFQDQYVKAASHLLSIHKVYEAVELLKSNHFYREAIAIAKARLRPEEPVLKDLYLSWGTVLERDGHYAVAAKCYLGATCAYDAAKVLAKKGDAASLRTAAELAAIVGEDELSASLALRCAQELLLANNWVGAQEALQLHESLQGQRLVFCLLELLSRHLEEKQLSEGKSSSSYHTWNTGTEGPFVERVTAVWKSIFSLDTPEQYQEAFQKLQNIKYPSATNNTPAKQLLLHICHDLTLAVLSQQMASWDEAVQALLRAVVRSYDSGSFTIMQEVYSAFLPDGCDHLRDKLGDHQSPATPAFKSLEAFFLYGRLYEFWWSLSRPCPNSSVWVRAGHRTLSVEPSQQLDTASTEETDPETSQPEPNRPSELDLRLTEEGERMLSTFKELFSEKHASLQNSQRTVAEVQETLAEMIRQHQKSQLCKSTANGPDKNEPEVEAEQPLCSSQSQCKEEKNEPLSLPELTKRLTEANQRMAKFPESIKAWPFPDVLECCLVLLLIRSHFPGCLAQEMQQQAQELLQKYGNTKTYRRHCQTFCM
other: G5845-1508 intensity 80S/S30 [1]: 0.46

B2: Xpress-G5_(845-1508)-WT, Q8TEQ6 A951E (protein)
chain: ARSLLPLSTSLDHRSKEELHQDCLVLATAKHSRELNEDVSADVEERFHLGLFTDRATLYRMIDIEGKGHLENGHPELFHQLMLWKGDLKGVLQTAAERGELTDNLVEMAPAAGYHVWLWAVEAFAKQLCFQDQYVKAASHLLSIHKVYEAVELLKSNHFYREAIAIAKARLRPEDPVLKDLYLSWGTVLERDGHYAVAAKCYLGATCAYDAAKVLAKKGDAASLRTAAELAAIVGEDELSASLALRCAQELLLANNWVGAQEALQLHESLQGQRLVFCLLELLSRHLEEKQLSEGKSSSSYHTWNTGTEGPFVERVTAVWKSIFSLDTPEQYQEAFQKLQNIKYPSATNNTPAKQLLLHICHDLTLAVLSQQMASWDEAVQALLRAVVRSYDSGSFTIMQEVYSAFLPDGCDHLRDKLGDHQSPATPAFKSLEAFFLYGRLYEFWWSLSRPCPNSSVWVRAGHRTLSVEPSQQLDTASTEETDPETSQPEPNRPSELDLRLTEEGERMLSTFKELFSEKHASLQNSQRTVAEVQETLAEMIRQHQKSQLCKSTANGPDKNEPEVEAEQPLCSSQSQCKEEKNEPLSLPELTKRLTEANQRMAKFPESIKAWPFPDVLECCLVLLLIRSHFPGCLAQEMQQQAQELLQKYGNTKTYRRHCQTFCM
other: G5845-1508 intensity 80S/S30 [1]: 0.48

B3: Xpress-G5_(845-1508)-WT, Q8TEQ6 R1016C (protein)
chain: ARSLLPLSTSLDHRSKEELHQDCLVLATAKHSRELNEDVSADVEERFHLGLFTDRATLYRMIDIEGKGHLENGHPELFHQLMLWKGDLKGVLQTAAERGELTDNLVAMAPAAGYHVWLWAVEAFAKQLCFQDQYVKAASHLLSIHKVYEAVELLKSNHFYREAIAIAKARLCPEDPVLKDLYLSWGTVLERDGHYAVAAKCYLGATCAYDAAKVLAKKGDAASLRTAAELAAIVGEDELSASLALRCAQELLLANNWVGAQEALQLHESLQGQRLVFCLLELLSRHLEEKQLSEGKSSSSYHTWNTGTEGPFVERVTAVWKSIFSLDTPEQYQEAFQKLQNIKYPSATNNTPAKQLLLHICHDLTLAVLSQQMASWDEAVQALLRAVVRSYDSGSFTIMQEVYSAFLPDGCDHLRDKLGDHQSPATPAFKSLEAFFLYGRLYEFWWSLSRPCPNSSVWVRAGHRTLSVEPSQQLDTASTEETDPETSQPEPNRPSELDLRLTEEGERMLSTFKELFSEKHASLQNSQRTVAEVQETLAEMIRQHQKSQLCKSTANGPDKNEPEVEAEQPLCSSQSQCKEEKNEPLSLPELTKRLTEANQRMAKFPESIKAWPFPDVLECCLVLLLIRSHFPGCLAQEMQQQAQELLQKYGNTKTYRRHCQTFCM
other: G5845-1508 intensity 80S/S30 [1]: 0.51

B4: Gemin5 TPR-like dimerization domain R1016C (domain or fragment, human, UniProt Q8TEQ6 845-1097, looked up)
chain: ARSLLPLSTSLDHRSKEELHQDCLVLATAKHSRELNEDVSADVEERFHLGLFTDRATLYRMIDIEGKGHLENGHPELFHQLMLWKGDLKGVLQTAAERGELTDNLVAMAPAAGYHVWLWAVEAFAKQLCFQDQYVKAASHLLSIHKVYEAVELLKSNHFYREAIAIAKARLCPEDPVLKDLYLSWGTVLERDGHYAVAAKCYLGATCAYDAAKVLAKKGDAASLRTAAELAAIVGEDELSASLALRCAQELLL
notes: Tag cut by PreScission protease; also called TPR-like R1016C; source: E. coli BL21-Rosetta (DE3) pLysS, purified (HisTrap, tag cleavage, SEC in 0.2 M NaCl); not shown: His6, N-terminal, cleaved; MBP, N-terminal, cleaved
stoichiometry N [2]: 2

B5: Gemin5 TPR-like dimerization domain D1019E (domain or fragment, human, UniProt Q8TEQ6 845-1097, looked up)
chain: ARSLLPLSTSLDHRSKEELHQDCLVLATAKHSRELNEDVSADVEERFHLGLFTDRATLYRMIDIEGKGHLENGHPELFHQLMLWKGDLKGVLQTAAERGELTDNLVAMAPAAGYHVWLWAVEAFAKQLCFQDQYVKAASHLLSIHKVYEAVELLKSNHFYREAIAIAKARLRPEEPVLKDLYLSWGTVLERDGHYAVAAKCYLGATCAYDAAKVLAKKGDAASLRTAAELAAIVGEDELSASLALRCAQELLL
notes: Tag cut by PreScission protease; also called TPR-like D1019E; source: E. coli BL21-Rosetta (DE3) pLysS, purified (HisTrap, tag cleavage, SEC in 0.2 M NaCl); not shown: His6, N-terminal, cleaved; MBP, N-terminal, cleaved
stoichiometry N [2]: 2

Reference: paper PMC8989681, “Functional and structural deficiencies of Gemin5 variants associated with neurological disorders” (Life Science Alliance, 2022)
